Experimental data taken from US5951979.

Target: tyrosine phosphorylated ^32 P-labelled RCM-lysozyme (Gallus gallus (Chicken)) (UniProt P00698)

Substance “full length PTP-PEST D199A (from UniProt Q05209) (enzyme)” has a specific activity with tyrosine phosphorylated RCM-Lysozyme as substrate (fold lower than the wild type enzyme) of 10000.
